Data set [1] is described as follows: folding stability dG unfold from trypsin proteolysis; higher = more stable. The method in brief: (§1)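 Sequencing followed digestion of designed mini-proteins with trypsin and chymotrypsin, each at 11 concentrations in threefold dilutions together with a no-protease condition. The mini-proteins were under 80 residues, had no cysteine, sat in a PA-tagged cDNA display construct, and were kept only if AlphaFold2 dimer inter-PAE was above 15. From the counts, Bayesian fitting gave K50, and unfolding free energy was derived against a sequence-predicted unfolded-state K50 and a shared folded-state K50, per protease or combined.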

A short description of data set [2]: folding stability dG unfold from chymotrypsin proteolysis; higher = more stable. Put shortly: as §1
A short description of data set [3]: folding stability dG unfold (combined trypsin and chymotrypsin); higher = more stable. The method in brief: as §1

Consider 26 sequences from the supplement of paper PMC12764529.

± gives the half width of the 95% confidence interval.

As to “SAGGKTVEVEFEAPESLSPEEIAAAILAAAPPGYFVKVEEVEVRDRPDGEKVILYKATFYDPDTGDFDSAGG [r13_12_TrMRF]”, the “folding stability dG unfold” value was 2.72 ± 0.081 kcal/mol in data set [1], 2.804 ± 0.021 kcal/mol in data set [2] and 2.73 ± 0.048 kcal/mol in data set [3].

Take “SAGGKTVVIELDGARIEFNEDDGTITVWMPREELEALKAALPPGAEIVEVRERPDGWVQVTIRITPPSAGGS [r8_415_TrROS_Hall]”: the “folding stability dG unfold” value was 3.1 ± 0.14 kcal/mol in data set [1], 4.21 ± 0.15 kcal/mol in data set [2] and 3.89 ± 0.1 kcal/mol in data set [3].

Turning to “SAGGKVEVELEDGKLRVKVFDKNGKLVEEVEVELKPVTIVIPGLSEEELQELKEKFPGAKITILEGQKSAGG [r13_235_TrROS_Hall]”, the “folding stability dG unfold” value in data set [1] came out at 1.73 ± 0.063 kcal/mol; in data set [2], 2.87 ± 0.08 kcal/mol; in data set [3], 2.39 ± 0.11 kcal/mol.

As to “SAGGKVKALIIPAPDEPGKPVYLKIIHPDGEIVYPLPNDITEEEAKAAAIELGEENGLDLDEIEIAESAGGS [r16_753_TrMRF]”, the “folding stability dG unfold” value in data set [1] stood at 0.537 ± 0.032 kcal/mol; in data set [2], 0.893 ± 0.065 kcal/mol; in data set [3], 0.746 ± 0.099 kcal/mol.

In the case of “SAGGKVKIIVFNKKTGEKIEIDLSKLKPGDIIKLPNGYYKIIDKKTKKIKVIKAKSIEELKKAIKKLSSAGG [r13_962_TrROS_Hall]”, the “folding stability dG unfold” value in data set [1] stood at 2.07 ± 0.15 kcal/mol; in data set [2] it was 2.21 ± 0.17 kcal/mol; in data set [3] it was 2.01 ± 0.33 kcal/mol.

As to “SAGGKVKVKLSPEMIEALKKAGIKEGQKEVTIEVKLKDGSVYRVTITYDKKTNKITIKVEKVEKLPPSAGGS [r16_497_TrROS_Hall]”, the figures for the “folding stability dG unfold” value in data set [1], in data set [2] and in data set [3] were 2.58 ± 0.16 kcal/mol, 4.16 ± 0.1 kcal/mol and 3.88 ± 0.32 kcal/mol, respectively.

Take “SAGGKVKVTVTPDGTVTIEFEAESVEEAIKAAKAFLEEAGFEVESIPVEVPPDGTVKVTAKIKPKNASAGGS [r8_253_TrMRF]”: the “folding stability dG unfold” value in data set [1] is 1.33 ± 0.06 kcal/mol; in data set [2] it was 1.79 ± 0.11 kcal/mol; in data set [3], 1.67 ± 0.14 kcal/mol.

For “SAGGKVTLIEVEFEGGNPTISLTVTNADGSVEAVFVSPSPTDVLYATATLTVGGHPVVVVARASKDESAGGS [r16_672_TrMRF]”, the results for the “folding stability dG unfold” value in data set [1], in data set [2] and in data set [3] were 1.3 ± 0.094 kcal/mol, 2.11 ± 0.056 kcal/mol and 1.8 ± 0.12 kcal/mol, respectively.

On to “SAGGKVTLRAPVVVPKDKIEDFIDALREALEALGLKEFKDIEIKEIIEGDDYYIIDFEVTAEADLPELASAG [r5_575_TrMRF]”, for which the figures for the “folding stability dG unfold” value in data set [1], in data set [2] and in data set [3] were 2.65 ± 0.12 kcal/mol, 2.21 ± 0.036 kcal/mol and 2.32 ± 0.13 kcal/mol, respectively.

Take “SAGGKVTVENDTLTIPFPDGFTVEITLPPNDKTAVITLHTPPNNPLALAAAKAIADSLPDYKVEVRDESAGG [r13_34_TrMRF]”: the “folding stability dG unfold” value in data set [1] was 0.662 ± 0.035 kcal/mol; in data set [2], 0.649 ± 0.06 kcal/mol; in data set [3], 0.704 ± 0.07 kcal/mol.

For “SAGGKVVTVEVELENGVRVTVEFVEEDGYLALKVTVEVRLPAPPVTTADGREKEVTRRLELVILLPKESAGG [r13_780_TrROS_Hall]”, the “folding stability dG unfold” value in data set [1] was 2.72 ± 0.14 kcal/mol; in data set [2] it was 3.17 ± 0.15 kcal/mol; in data set [3], 3.05 ± 0.13 kcal/mol.

“SAGGKVYEFEIEVELLDPETGKPKKIKLKVPVFVDPKTGKVTKKVEAEPEPNVPKEEAEKIAKEIIEAESAG [r14_152_TrMRF]”: the “folding stability dG unfold” value was -0.04 ± 0.38 kcal/mol in data set [1], 1.71 ± 0.073 kcal/mol in data set [2] and 1.36 ± 0.31 kcal/mol in data set [3].

For “SAGGKYGYKIEIEIAIFRIPPGAEVEPERIGNIEIYRIRFPDGNWLIMIRIKVKPMPPPPPEKKDNDDSAGG [r13_804_TrROS]”, the “folding stability dG unfold” value was 3.61 ± 0.22 kcal/mol in data set [1], 4.7 ± 0.23 kcal/mol in data set [2] and 4.22 ± 0.34 kcal/mol in data set [3].

As to “SAGGKYKIEIEITEIKEKEDGTKEITIKIKIYDEETGELIYTITVKMRIDKKTNKIIIEEVKIEKLPPSAGG [r13_596_TrROS_Hall]”, the “folding stability dG unfold” value is 4.22 ± 0.29 kcal/mol in data set [1], 6 ± 0.36 kcal/mol in data set [2] and greater than 6 kcal/mol in data set [3].

“SAGGKYKIEIVDVEVKEDGTVTIKLKLYNENGELIAEIEIELKGVKEVTLELEIGGKKIKITLKVEKPSAGG [r13_427_TrROS_Hall]”: the “folding stability dG unfold” value in data set [1] turned out to be 4.13 ± 0.36 kcal/mol; in data set [2] it was 5.3 ± 0.17 kcal/mol; in data set [3], 5.36 ± 0.41 kcal/mol.

For the sequence “SAGGLAEYIARYLQENDPRARVEAEEGDVLDGVRVIRVRVERVDDAFGGDIPSSADFILVIPAGAPPTSAGG [r19_8_TrMRF]”, the “folding stability dG unfold” value in data set [1] stood at 1.36 ± 0.025 kcal/mol; in data set [2] it was 1.38 ± 0.1 kcal/mol; in data set [3], 1.38 ± 0.089 kcal/mol.

Regarding “SAGGLDAVLAELAKKPPGVTVELPVELPDGSRVVLTATWPAETSSPVITVKYYDPNRPEAVEEETFTVTSAG [r5_35_JUSTAS]”, the “folding stability dG unfold” value in data set [1] is 1.34 ± 0.08 kcal/mol; in data set [2] it was 1.47 ± 0.049 kcal/mol; in data set [3] it was 1.46 ± 0.12 kcal/mol.

Turning to “SAGGLIEAIKEAIDQAPPGDEEVTIPIRFPNGTFVIEIRREKDKYKIEIEMQNPNGQKQEITITIEVSAGGS [r16_642_TrROS]”, the “folding stability dG unfold” value in data set [1] was 1.43 ± 0.091 kcal/mol; in data set [2], 1.69 ± 0.089 kcal/mol; in data set [3] it was 1.65 ± 0.12 kcal/mol.

Consider “SAGGLKELLEALKEGNLEEALEALKKLGIEEVKIEIKPVVRVVITVEVPKEKVKVKVEVRVFLPEEELSAGG [r13_359_TrROS_Hall]”, for which the “folding stability dG unfold” value in data set [1] amounted to 1.94 ± 0.13 kcal/mol; in data set [2], 1.24 ± 0.23 kcal/mol; in data set [3], 1.71 ± 0.33 kcal/mol.

With “SAGGLKIDEFERSPNQGRYYVTIKIYHPDNGKPWDIEVPFNPDNGRWSAEEIAKTIAKKFKLPPGFTISAGG [r13_362_TrROS]”, the “folding stability dG unfold” value in data set [1] is 1.814 ± 0.014 kcal/mol; in data set [2], 2.3 ± 0.08 kcal/mol; in data set [3], 2.05 ± 0.062 kcal/mol.

In the case of “SAGGLKPGDWVIIMTIEFPFPFPDDDGKPQEWRIKITIWVPVEYDPPDGKLEIDNIFINIEIVPPDQISAGG [r13_312_TrROS]”, the results for the “folding stability dG unfold” value in data set [1], in data set [2] and in data set [3] were 3.52 ± 0.22 kcal/mol, 4.55 ± 0.1 kcal/mol and 4.44 ± 0.18 kcal/mol, respectively.

“SAGGLLEELGLEIEEVEVEVEEVEVGQTVRIRVKVKGEDGEEFEIELEIRLPPPPVEVEEEVEEEEESAGGS [r8_216_TrROS_Hall]”: the “folding stability dG unfold” value came to 1.91 ± 0.2 kcal/mol in data set [1], 1.83 ± 0.09 kcal/mol in data set [2] and 1.82 ± 0.14 kcal/mol in data set [3].

Regarding “SAGGLLPLLKEIAEALGLPEIESLSFDPETGELTLRFRGPEPYLLRIPFRPVKDGGIPLDIEVYPTDLSAGG [r13_410_TrMRF]”, the “folding stability dG unfold” value came out at 2.86 ± 0.06 kcal/mol in data set [1], 3.006 ± 0.03 kcal/mol in data set [2] and 3.02 ± 0.056 kcal/mol in data set [3].

As to “SAGGLPEEVEKLAEILAKLPPVVPVPVTFPDGVEVVYFPPTGFVAVRFYERDENGEWVLVGETFFPVSAGGS [r16_243_TrMRF]”, the “folding stability dG unfold” value in data set [1] is 2.44 ± 0.042 kcal/mol; in data set [2], 3.235 ± 0.016 kcal/mol; in data set [3], 2.98 ± 0.05 kcal/mol.

Turning to “SAGGLSGEAKLVEAEFEPETGTVRVFAEAGDELLTFEFKGTPFLPPIPASISPESLEKDEPVIRVSGSAGGS [r16_809_TrMRF]”, the “folding stability dG unfold” value in data set [1] came out at 0.597 ± 0.059 kcal/mol; in data set [2], 0.143 ± 0.14 kcal/mol; in data set [3], 0.422 ± 0.079 kcal/mol.

Consider “SAGGLSLEELADELAQENGWEITEAEPIEFTPNTIRFEVTVRMPDGKRRTIEIEIEIPPPKPPDQPKSAGGS [r8_309_TrROS]”, for which the “folding stability dG unfold” value came out at 1.15 ± 0.067 kcal/mol in data set [1], 1.63 ± 0.058 kcal/mol in data set [2] and 1.39 ± 0.13 kcal/mol in data set [3].
